Test [1] deals with Hbl B in culture supernatant of B. cereus strain MHI 1532 (Bacillus cereus strain MHI 1532 (endogenous in culture supernatant)) (UniProt P80172). The test can be described thus: co-IP.
Test [2] has as its target recombinant Hbl L1 (haemolysin BL component L1) (Bacillus cereus strain F837/76). The experiment in a line: SPR; BIACORE 3000; rHbl L1 amine-coupled to CM5 chip (560 RU); rHbl L2 or B injected 7.8 nM to 2 uM at 30 uL/min, 20 °C, in PBS, 1 mM DTT, 0.005% Tween 20; KD from steady state, one-site model, mean of three (L2) or four (B) experiments; L1 + B did not reach full saturation at lower concentrations, KD likely slightly underestimated.

The target of test [3] is recombinant Hbl B (haemolysin BL binding component B) (Bacillus cereus strain F837/76) (UniProt P80172). The experiment in a line: SPR; BIACORE 3000; rHbl B amine-coupled to CM5 chip (500 RU); rHbl L2 injected 31.2 nM to 4 uM at 30 uL/min, 20 °C, in PBS, 1 mM DTT, 0.005% Tween 20; KD from steady state, mean of four experiments.

“Hbl L1 in culture supernatant of B. cereus strain MHI 1532 (natural protein)”: in test [1], the percent in elution fraction worked out at 180%, the percent in sample flow-through was below 5% and the percent in wash fraction is below 5%.
A word on the Kd: it is the equilibrium constant for the complex coming apart. Regarding “recombinant Hbl B (haemolysin BL binding component B) (from UniProt P80172 32-375) (natural protein)”, the Kd in test [2] was 470 nM.
On to “recombinant Hbl L2 (haemolysin BL component L2) (natural protein)”, for which the results for the Kd in test [3] and in test [2] were 3400 nM and 150 nM, respectively.
Take “Hbl L2 in culture supernatant of B. cereus strain MHI 1532 (natural protein)”: in test [1], the percent in elution fraction came to 29%, the percent in sample flow-through amounted to 51% and the percent in wash fraction was determined as 20%.

Source of the values: PMC5618221.
